Target: SARS-CoV-2 nucleocapsid protein (N protein) (SARS-CoV-2, UniProt P0DTC9 1-419)

B1: N-binding clone H2 Fab (Fab, V domains shown)
VH: EVQLVESGGGLVQPGGSLRLSCAASGFNVYSSSIHWVRQAPGKGLEWVASISSYYSYTSYADSVKGRFTISADTSKNTAYLQMNSLRAEDTAVYYCARSYNFSWSGYYGFDYWGQGTLVTVSS
VL: DIQMTQSPSSLSASVGDRVTITCRASQSVSSAVAWYQQKPGKAPKLLIYSASSLYSGVPSRFSGSRSGTDFTLTISSLQPEDFATYYCQQFIQFPITFGQGTKVEIKR
**Q.** With B1 as the binder, how does the Kd read?
**A.** Its Kd is 20 nM.

Reference: patent US20230176057A1 (CHAN ZUCKERBERG BIOHUB, published 2023)
